One test addresses T1, GST–lamin A (human, UniProt P02545 1-646).
T1 sequence (looked up): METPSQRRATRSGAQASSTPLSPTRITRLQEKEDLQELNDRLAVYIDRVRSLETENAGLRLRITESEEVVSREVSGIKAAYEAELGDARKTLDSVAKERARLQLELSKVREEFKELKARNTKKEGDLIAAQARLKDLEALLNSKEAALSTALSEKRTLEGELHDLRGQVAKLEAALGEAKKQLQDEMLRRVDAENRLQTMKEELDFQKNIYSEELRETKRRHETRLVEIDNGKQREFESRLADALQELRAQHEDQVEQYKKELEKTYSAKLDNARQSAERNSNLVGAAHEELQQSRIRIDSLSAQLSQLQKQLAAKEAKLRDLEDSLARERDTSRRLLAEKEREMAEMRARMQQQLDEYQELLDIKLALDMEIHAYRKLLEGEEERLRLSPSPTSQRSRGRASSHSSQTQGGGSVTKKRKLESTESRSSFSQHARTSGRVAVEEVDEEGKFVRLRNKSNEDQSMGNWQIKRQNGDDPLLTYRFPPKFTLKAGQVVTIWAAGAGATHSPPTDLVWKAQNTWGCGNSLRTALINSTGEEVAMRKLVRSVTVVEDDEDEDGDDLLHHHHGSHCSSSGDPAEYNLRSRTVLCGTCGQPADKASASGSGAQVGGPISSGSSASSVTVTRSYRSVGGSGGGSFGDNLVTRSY
Put plainly: pull-down.

For another test, the target named is T2, GST–prelamin A (human, UniProt P02545 1-664).
T2 sequence (looked up): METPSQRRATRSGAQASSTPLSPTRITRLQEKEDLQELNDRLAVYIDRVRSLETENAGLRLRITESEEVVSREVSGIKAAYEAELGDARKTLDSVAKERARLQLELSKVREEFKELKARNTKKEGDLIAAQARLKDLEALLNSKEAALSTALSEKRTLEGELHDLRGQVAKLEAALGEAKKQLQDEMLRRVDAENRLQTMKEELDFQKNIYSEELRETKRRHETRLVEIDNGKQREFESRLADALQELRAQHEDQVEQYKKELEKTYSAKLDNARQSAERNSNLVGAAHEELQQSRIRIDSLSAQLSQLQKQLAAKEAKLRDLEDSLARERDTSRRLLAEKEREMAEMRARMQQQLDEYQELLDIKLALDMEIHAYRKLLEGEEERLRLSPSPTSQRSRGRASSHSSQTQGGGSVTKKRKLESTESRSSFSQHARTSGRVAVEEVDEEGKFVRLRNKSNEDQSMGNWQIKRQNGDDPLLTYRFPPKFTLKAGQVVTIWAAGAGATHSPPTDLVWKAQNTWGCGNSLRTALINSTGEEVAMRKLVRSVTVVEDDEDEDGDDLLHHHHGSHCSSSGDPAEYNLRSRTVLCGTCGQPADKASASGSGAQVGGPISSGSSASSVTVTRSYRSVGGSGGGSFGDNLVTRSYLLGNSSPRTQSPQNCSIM
Put plainly: pull-down.

B1: CK2β (in vitro pull-down) (natural protein)
chain: not shown
As to B1, the binding result with GST–lamin A and with GST–prelamin A was “binds” in each case.
